Target: T1, GST-K-p52 (human, UniProt O75475 1-325, 32P-labeled by HMK where used as Farwestern probe)
T1 construct: The Nru I-EcoR V fragment of p52 cDNA was put in pGEX-2T(K); also called GST-p52; p52 probe; not shown: glutathione-S-transferase from the pGEX-2T(K) vector; heart muscle kinase (K) site and vector linker
Test: Farwestern blot with 32P-labeled GST-K-p52

T1 sequence (O75475 other isoform, or with tags, fused parts or gaps): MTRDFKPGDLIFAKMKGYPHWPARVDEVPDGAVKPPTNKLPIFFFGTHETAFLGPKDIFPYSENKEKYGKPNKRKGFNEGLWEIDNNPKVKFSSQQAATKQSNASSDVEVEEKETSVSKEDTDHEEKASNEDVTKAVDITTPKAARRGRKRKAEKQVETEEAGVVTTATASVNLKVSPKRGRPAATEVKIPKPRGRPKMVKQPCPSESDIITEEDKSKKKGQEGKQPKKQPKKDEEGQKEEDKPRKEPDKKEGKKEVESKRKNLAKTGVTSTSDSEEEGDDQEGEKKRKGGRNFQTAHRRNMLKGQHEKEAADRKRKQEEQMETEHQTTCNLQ

B1: GST-RS (GST-fused RS domain of ASF/SF2) (other, UniProt Q07955 198-248, looked up)
chain: RSPSYGRSRSRSRSRSRSRSRSNSRSRSYSPRRSRGSPRYSPRHSRSRSRT
notes: domain: RS domain; not shown: glutathione-S-transferase
- binding result: no binding

Source: patent US20050042631A1 (US Dept. of Health and Human Services, published 2005)
